In one experiment the target is T1, PDK1[R131A] (Homo sapiens, UniProt O15530, R131A).
T1 construct: GST (N); made in house; host or cells: human embryonic kidney 293 cells (pEBG2T vector)
T1 sequence (O15530 1-556 R131A): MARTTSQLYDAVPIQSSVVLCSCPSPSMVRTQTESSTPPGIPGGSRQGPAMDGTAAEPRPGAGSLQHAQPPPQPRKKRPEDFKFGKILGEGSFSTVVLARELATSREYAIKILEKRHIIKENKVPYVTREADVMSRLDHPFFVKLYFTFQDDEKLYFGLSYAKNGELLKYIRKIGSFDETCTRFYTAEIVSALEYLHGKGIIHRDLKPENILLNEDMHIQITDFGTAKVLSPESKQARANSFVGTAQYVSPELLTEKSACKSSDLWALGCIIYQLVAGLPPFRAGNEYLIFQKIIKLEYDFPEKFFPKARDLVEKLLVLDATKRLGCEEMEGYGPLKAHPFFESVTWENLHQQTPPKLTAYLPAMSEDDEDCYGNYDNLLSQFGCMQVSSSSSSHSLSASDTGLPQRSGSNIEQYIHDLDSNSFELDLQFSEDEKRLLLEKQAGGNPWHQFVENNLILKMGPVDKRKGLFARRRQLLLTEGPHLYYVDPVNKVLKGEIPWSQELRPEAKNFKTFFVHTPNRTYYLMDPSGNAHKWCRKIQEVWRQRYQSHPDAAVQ
Put plainly: PDK1 catalytic activity towards T308tide, activation by peptides, PDK1[R131A]. Format: biochemical. The note with it: high peptide concentrations. The procedure: (§1) C. Activation of the indicated forms of PDK1 by 56K-pHM and S6K-HM. PDK1 activity was measured using the peptide substrate (T308tide) in the presence of the indicated concentrations of 56K-pHM (closed circles) and S6K-HM (open circles) as described in the methods. Assays were performed in triplicate and similar results obtained in 2 separate experiments. The results are the average—SD for a single experiment.
(§2) The ability of wild type and mutant PDK1 to phosphorylate the synthetic peptide T308tide ([…] ([Biondi et al., 2000]) (SEQ ID NO:108) was carried out in 30 μl assays containing 100 ng of wild type or mutant PDK1, 50 mM Tris/HCl pH 7.5, 0.1% 13-mercaptoethanol, 10 mM MgCl2, 100 μM [32γ P]ATP (200 cpm/pmol), 0.5 μM microcystin-LR, 1 mM T308tide in the presence or absence of the indicated concentrations of the 56K-pHM peptide ([…](P)YVAPSV) (SEQ ID NO:104) or 56K-HM. peptide ([…]) (SEQ ID NO:105). After incubation for 10 min at 30° C., 25 μl of the resultant mixture was spotted into P81 phosphocellulose paper (2×2 cm) and the papers washed and analysed as described previously for assays of MAP kinase. Control assays were carried out in parallel in which either PDK1, or peptide substrate were omitted; these values were always less than 5% of the activity measured in the presence of these reagents. One Unit of PDK1 activity was defined as that amount required to catalyse the phosphorylation of 1 nmol of the T308tide in 1 min.

The next experiment deals with T2, PDK1[K76A] (Homo sapiens, UniProt O15530, K76A).
T2 construct: made in house; host or cells: human embryonic kidney 293 cells (pEBG2T vector)
T2 sequence (O15530 1-556 K76A): T1 sequence (O15530 1-556 R131A) with K76A, A131R
The experiment can be described thus: PDK1 catalytic activity towards T308tide, activation by peptides, PDK1[K76A]. Format: biochemical. Conditions: high peptide concentrations. The procedure: as §1
as §2, with “One Unit of PDK1 activity was defined as that amount required to catalyse the phosphorylation of 1 nmol of the T308tide in 1 min.” left out

The target of another experiment is T3, wild type PDK1 (Homo sapiens, UniProt O15530).
T3 sequence (O15530 1-556): T1 sequence (O15530 1-556 R131A) with A131R
Put plainly: Surface plasmon resonance (BiaCore) binding of hydrophobic motif peptides, wild type PDK1. The arrangement: made in house; host or cells: human embryonic kidney 293 cells (pEBG2T vector). Conditions: surface plasmon resonance. How it is done: Binding and activation of wild type and mutant forms of PDK1 to a phosphopeptide derived from the hydrophobic motif of S6K1. The binding of the wild type (wt) PDK1 and indicated mutants to a phosphopeptide comprising the hydrophobic motif of S6K1 (S6K-pHM: […]*YVAPSV, where T* indicates phospho-threonine, SEQ ID NO:104) was analysed by surface plasmon resonance as described in the Materials and Methods.
A. The sensor chip SA was coated with 12RUs of the biotinylated S6K-pHM peptide and the binding was analysed following injection of 270 nM wild type PDK1, PDK1 [T148A] and PDK1 [K76A]. […] (data not shown).
B. As in A. except that binding was analysed over a range of PDK1 concentrations (2-2150 nM). The response level at the steady state binding is plotted versus the log of the PDK1 concentration. The estimated Kd was obtained by fitting the data to a sigmoid curve using Kaleidagraph software.
Binding was analysed in a BiaCore 3000 system (BiaCore AB, Stevenage, UK). Biotinylated S6K-pHM (Biotin-C12-[…](P)YVAPSV) (SEQ ID NO:104) or the non-phosphorylated form of this peptide S6K-HM was bound to an streptavidin-coated Sensor chip (SA) (12 response units, RU). 30 μl of wild type or the indicated mutant GST-PDK1 were injected at a flow rate of 30 μl/min, in buffer HBS-P (10 mM HEPES pH 7.4, 0.15M NaCl, 0.005% (by vol) polysorbate-20) supplemented with 1 mM DTT. Specific interactions between 56K-pHM and PDK1 proteins were obtained between the concentration range of 2-2150 nM PDK1. Steady state binding was determined at each concentration. Dissociation of PDK1 from the phospho-peptide was monitored over a 1 min period. Regeneration of the sensor chip surface was performed with 1{tilde over (0)} μl injections of 0.05% SDS. […] (RUmax=435). For all PDK1 construct tested, the off rates for S6Kp-HM were high in comparison to those of PIFtide binding with the time taken for 50% dissociation to occur for 56K-pHM is 30s compared to 1000s for PIFtide.
Background: Surface plasmon resonance follows binding to a sensor surface in real time, without labels.

The target of experiment [1] is S6K-pHM, phosphopeptide comprising the hydrophobic motif of S6K1. Put plainly: SPR (BiaCore), against wild type PDK1.
For experiment [2] the target is unchanged. The experiment can be described thus: SPR (BiaCore 3000), biotinylated S6K-pHM on SA chip, GST-PDK1 injected at 2-2150 nM, steady state, apparent Kd.
The target is the same in experiment [3]. Put plainly: SPR (BiaCore), rounded value.

Consider two substances from patent US7792665B2, “Method for designing a compound based on the three dimensional structure of phosphoinositide dependent protein kinase 1 (PDK1)” (Medical Research Council, priority 2002, dated 2010).

Where a chain is given by its changes, count along the chain named. “Also recorded” adds a separate entry of the source.

In the case of “S6K-HM: non-phosphorylated S6K-HM peptide (SESANQVFLGFTYVAPSV)”, in the experiment with PDK1[R131A], the “activation of PDK1[R131A] by non-phosphorylated peptide” value is on record as “to a similar extent as wild type PDK1”. Moreover, in the experiment with PDK1[K76A], the “activation of PDK1[K76A] by non-phosphorylated peptide” value is reported as “to a similar extent as wild type PDK1”. Further, in the experiment with wild type PDK1, the “binding of wild type PDK1 to peptide” value is listed as “No detectable binding; also recorded: not detectably”.
Turning to “GST-PDK1[K76A] (from UniProt O15530 1-556) (enzyme)”, the fold lower affinity than wild type PDK1 in experiment [1] amounted to 3 fold. In addition, the Kd worked out at 1740 nM in experiment [2] and 1700 nM in experiment [3].
